Laboratory results published in patent US20020082396A1 (published 2002).

Target: T1, recombinant human IL-8 (Amersham) (human, UniProt P10145 28-99, limits assumed)
T1 construct: In the ELISA it is captured by goat anti-human IL-8 polyclonal antibody on the plate; In the neutrophil assay it is 125I-labelled and non-labelled IL-8 at 4 ng/ml each; also called human interleukin-8
T1 sequence (looked up): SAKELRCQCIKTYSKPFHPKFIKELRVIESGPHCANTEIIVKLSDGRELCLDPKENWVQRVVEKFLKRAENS
Experiment: ELISA: human IL-8 captured by goat anti-human IL-8 polyclonal antibody, COS culture medium serially diluted, AP-labelled anti-human IgG

B1: antibody of the chimeric WS-4 L chain and version a of the reshaped human WS-4 H chain (chL/RVHa) (antibody, V domains shown)
VH: EVQLLESGGGLVQPGGSLRLSCAASGFTFSDYYLSWVRQAQGKGLELVGLIRNKANGYTREYSASVKGRLTISREDSKNTLYLQMSSLKTEDLAVYYCARENYRYDVELAYWGQGTLVTVSS
VL: DIQMTQSPASLSASVGETVTITCRASEIIYSYLAWYQQKQGKSPQLLVYNAKTLADGVSSRFSGSGSGTQFSLRISSLQPEDFGSYYCQHHFGFPRTFGGGTKLELK
notes: Human C kappa and human C gamma 1 regions (HEF-chWS4L-gk with HEF-RVHa-gg1), tested as COS cell culture medium
- binding result: no binding

B2: reshaped human WS-4 antibody RVLa/RVHc (antibody, V domains shown)
VH: EVQLLESGGGLVQPGGSLRLSCAASGFTFSDYYLSWVRQAPGKGLELVGLIRNKANGYTREYSASVKGRLTISREDSKNTLYLQMSSLKTEDLAVYYCARENYRYDVELAYWGQGTLVTVSS
VL: DIQMTQSPSSLSASVGDRVTITCRASEIIYSYLAWYQQKPGKAPKLLIYNAKTLADGVPSRFSGSGSGTDFTFTISSLQPEDIATYYCQHHFGFPRTFGQGTKVEIK
notes: Human C kappa and human C gamma 1 regions, tested as COS cell culture medium; also called antibody having H chain version c
- binding result: no binding
